This is an account of results in article PMC6633205, “Cus2 enforces the first ATP-dependent step of splicing by binding to yeast SF3b1 through a UHM–ULM interaction” (RNA, 2019).

What is called stoichiometry N is the number of molecules, sites or subunits per partner or assembly.

Substitutions are numbered along the chain they refer to. Numbers in names are those of the source.

Assay [1] addresses SF3b1 ULM5 (Homo sapiens) (UniProt O75533). To be noted: cited from earlier work.
For assay [2], the target named is T1, Tat-SF1 (residues 1-360) (human, UniProt O43719 1-360).
T1 chain: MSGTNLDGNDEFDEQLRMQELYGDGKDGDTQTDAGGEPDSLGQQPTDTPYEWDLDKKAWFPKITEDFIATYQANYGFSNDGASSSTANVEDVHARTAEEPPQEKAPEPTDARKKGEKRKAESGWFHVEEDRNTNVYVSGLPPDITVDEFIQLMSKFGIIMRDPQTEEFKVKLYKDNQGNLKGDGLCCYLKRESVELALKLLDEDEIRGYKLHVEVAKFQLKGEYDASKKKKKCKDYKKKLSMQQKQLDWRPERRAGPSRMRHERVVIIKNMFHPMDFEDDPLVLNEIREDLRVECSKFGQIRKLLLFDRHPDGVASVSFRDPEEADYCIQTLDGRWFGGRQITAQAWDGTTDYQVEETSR
Put plainly: ITC.

The target of assay [3] is T2, Cus2 D204K with C-terminal His-tag (S. cerevisiae, UniProt P53830 1-285, D204K).
T2 construct: also called D204K mutant Cus2; recombinant Cus2^D204K; source: expressed and purified the same as wild-type Cus2, at the University of California Berkeley QB3 MacroLab
T2 sequence (looked up): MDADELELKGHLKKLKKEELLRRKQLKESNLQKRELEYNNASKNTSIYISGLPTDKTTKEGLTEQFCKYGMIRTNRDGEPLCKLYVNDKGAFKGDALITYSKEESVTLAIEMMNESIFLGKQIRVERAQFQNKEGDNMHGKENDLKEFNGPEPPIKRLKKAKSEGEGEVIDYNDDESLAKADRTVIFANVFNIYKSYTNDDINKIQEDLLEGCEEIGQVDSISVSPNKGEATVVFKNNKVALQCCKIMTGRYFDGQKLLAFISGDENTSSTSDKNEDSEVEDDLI
Put plainly: ITC; apparent; Cus2 or Tat-SF1 proteins titrated with Hsh155 ULM peptide (95-109); 50 mM NaCl, 25 mM HEPES pH 7.4, 0.2 mM TCEP; VP-ITC; three replicates. The following applies: both partners purified. (In general: ITC needs no label: the signal is the heat of the interaction.)

Assay [4] concerns the target T3, Tat-SF1 (residues 1-360) (human, UniProt O43719 1-360).
T3 construct: lacks the divergent acidic C-terminal expansion; Expressed as a GST fusion from a pGEX-6p variant with a TEV cleavage site for the GST tag; also called recombinant Tat-SF1
T3 sequence (looked up): T1 chain
The description is as above. The following applies: both partners purified.

Assay [5] has as its target T4, Cus2 UHM (residues 177-269) (S. cerevisiae, UniProt P53830 177-269).
T4 construct: Expressed as a GST fusion from a pGEX-6p variant with a TEV cleavage site for the GST tag; also called isolated Cus2 UHM
T4 sequence (looked up): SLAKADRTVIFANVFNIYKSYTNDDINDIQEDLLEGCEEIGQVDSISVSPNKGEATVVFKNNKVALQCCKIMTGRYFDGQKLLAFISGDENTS
The assay is described as above. The following applies: both partners purified.

Assay [6] addresses T5, Cus2, full length, with C-terminal His-tag (S. cerevisiae, UniProt P53830 1-285).
T5 construct: also called full-length Cus2; recombinant wild-type Cus2
T5 sequence (looked up): T2 sequence (looked up) with K204D
The description is as above. To be noted: both partners purified.

For assay [7], the target named is T6, GB1-Cus2, full length, with N-terminal His-tag and GB1 solubility tag (S. cerevisiae, UniProt P53830 1-285).
T6 construct: also called full-length Cus2 protein; not shown: GB1, N-terminal, kept
T6 sequence (looked up): T2 sequence (looked up) with K204D
Put plainly: pull-down; GST-fusion protein or GST (100 µg) immobilised on glutathione agarose, GB1-Cus2 (500 µg in 500 µL) added for 30 min; 100 mM NaCl, 25 mM HEPES pH 7.4, 10% glycerol, 0.1% NP-40; six washes; SDS-PAGE, Coomassie. The following applies: both partners purified.

The target in assay [8] is T7, Cus2, full length, fused to the GAL4 DNA-binding domain (S. cerevisiae, UniProt P53830 1-285).
T7 sequence (looked up): T2 sequence (looked up) with K204D
In words: cell-based or functional assay.

Take Tat-SF1 (from UniProt O43719): the Kd in assay [1] is 800 nM.

B1: ULM5 (peptide)
chain: KRKSRWDETPASQMGGSTP
The molecule B1 yielded a Kd in assay [2] of 800 nM.

B2: Hsh155 ULM peptide (residues 95-109) (peptide, UniProt P49955 95-109, looked up)
peptide: RKRKSRWDVKGYEPP
notes: source: synthetic peptide, bought: Biomatik Corp. (98% purity)
B2: the Kd turned out to be 1020 nM in assay [3], 229 nM in assay [4], 18 nM in assay [5] and 32 nM in assay [6]. For the same molecule, the “stoichiometry N” value in assay [3], in assay [4], in assay [5] and in assay [6] was roughly 1 each time.

B3: GST-Hsh155 (86-129) (domain or fragment, S. cerevisiae, UniProt P49955 86-129, looked up)
chain: ENTQDAVVPRKRKSRWDVKGYEPPDESSTAVKENSDSALVNVEG
notes: also called ^GSTHsh155^ULM; Hsh155^ULM
Regarding B3, in assay [7], the binding result is “binds”.

B4: Hsh155 R100D, W101A fused to the GAL4 activation domain (natural protein, S. cerevisiae, UniProt P49955 1-971, looked up)
chain: MSHPIQFVNANNSDKSHQLGGQYSIPQDLRENLQKEAARIGENEKDVLQEKMETRTVQNREDSYHKRRFDMKFEPDSDTQTVTSSENTQDAVVPRKRKSDADVKGYEPPDESSTAVKENSDSALVNVEGIHDLMFFKPSDHKYFADVISKKPIDELNKDEKKERTLSMLLLKIKNGNTASRRTSMRILTDKAVTFGPEMIFNRLLPILLDRSLEDQERHLMIKTIDRVLYQLGDLTKPYVHKILVVAAPLLIDEDPMVRSTGQEIITNLSTVAGLKTILTVMRPDIENEDEYVRNVTSRAAAVVAKALGVNQLLPFINAACHSRKSWKARHTGIKIVQQIGILLGIGVLNHLTGLMSCIKDCLMDDHVPVRIVTAHTLSTLAENSYPYGIEVFNVVLEPLWKGIRSHRGKVLSSFLKAVGSMIPLMDPEYAGYYTTEAMRIIRREFDSPDDEMKKTILLVLQKCSAVESITPKFLREEIAPEFFQKFWVRRVALDRPLNKVVTYTTVTLAKKLGCSYTIDKLLTPLRDEAEPFRTMAVHAVTRTVNLLGTADLDERLETRLIDALLIAFQEQTNSDSIIFKGFGAVTVSLDIRMKPFLAPIVSTILNHLKHKTPLVRQHAADLCAILIPVIKNCHEFEMLNKLNIILYESLGEVYPEVLGSIINAMYCITSVMDLDKLQPPINQILPTLTPILRNKHRKVEVNTIKFVGLIGKLAPTYAPPKEWMRICFELLELLKSTNKEIRRSANATFGFIAEAIGPHDVLVALLNNLKVQERQLRVCTAVAIGIVAKVCGPYNVLPVIMNEYTTPETNVQNGVLKAMSFMFEYIGNMSKDYIYFITPLLEDALTDRDLVHRQTASNVITHLALNCSGTGHEDAFIHLMNLLIPNIFETSPHAIMRILEGLEALSQALGPGLFMNYIWAGLFHPAKNVRKAFWRVYNNMYVMYQDAMVPFYPVTPDNNEEYIEELDLVL
As for B4, the “pre-mRNA coimmunoprecipitated with Lea1-TAP in the absence of ATP (ATP-independent pre-spliceosome formation) in Hsh155^RW-DA extract relative to wild-type extract” value in assay [8] is roughly 11 fold.

B5: SF3b1 ULM (protein)
chain: SQPPSKRKRRWDQTADQTPGATPKKLSSWDQAETPGHTPSLRWDETPGRAKGSETPGATPGSKIWDPTPSHTPAGAATPGRGDTPGHATPGHGGATSSARKNRWDETPKTERDTPGHGSGWAETPRTDRGGDSIGETPTPGASKRKSRWDETPAS
B5 came in with a Kd in assay [2] of 1800 nM.
